Data as given in US20250115669A1, “FGFR1/KLB Targeting Agonistic Antigen-Binding Proteins and Conjugates Thereof with GLP-1R Agonistic Peptides” (SANOFI, priority 2020, published 2025).
Like-named read-outs stand apart in the source and are kept apart here.

What was measured:
[1] = molecular target: T1, human beta-Klotho (Homo sapiens, UniProt Q86Z14); assay: SPR binding affinity and kinetics to human beta-Klotho (Biacore 8K, anti-human Fc capture)
T1 sequence (Q86Z14 1-1044): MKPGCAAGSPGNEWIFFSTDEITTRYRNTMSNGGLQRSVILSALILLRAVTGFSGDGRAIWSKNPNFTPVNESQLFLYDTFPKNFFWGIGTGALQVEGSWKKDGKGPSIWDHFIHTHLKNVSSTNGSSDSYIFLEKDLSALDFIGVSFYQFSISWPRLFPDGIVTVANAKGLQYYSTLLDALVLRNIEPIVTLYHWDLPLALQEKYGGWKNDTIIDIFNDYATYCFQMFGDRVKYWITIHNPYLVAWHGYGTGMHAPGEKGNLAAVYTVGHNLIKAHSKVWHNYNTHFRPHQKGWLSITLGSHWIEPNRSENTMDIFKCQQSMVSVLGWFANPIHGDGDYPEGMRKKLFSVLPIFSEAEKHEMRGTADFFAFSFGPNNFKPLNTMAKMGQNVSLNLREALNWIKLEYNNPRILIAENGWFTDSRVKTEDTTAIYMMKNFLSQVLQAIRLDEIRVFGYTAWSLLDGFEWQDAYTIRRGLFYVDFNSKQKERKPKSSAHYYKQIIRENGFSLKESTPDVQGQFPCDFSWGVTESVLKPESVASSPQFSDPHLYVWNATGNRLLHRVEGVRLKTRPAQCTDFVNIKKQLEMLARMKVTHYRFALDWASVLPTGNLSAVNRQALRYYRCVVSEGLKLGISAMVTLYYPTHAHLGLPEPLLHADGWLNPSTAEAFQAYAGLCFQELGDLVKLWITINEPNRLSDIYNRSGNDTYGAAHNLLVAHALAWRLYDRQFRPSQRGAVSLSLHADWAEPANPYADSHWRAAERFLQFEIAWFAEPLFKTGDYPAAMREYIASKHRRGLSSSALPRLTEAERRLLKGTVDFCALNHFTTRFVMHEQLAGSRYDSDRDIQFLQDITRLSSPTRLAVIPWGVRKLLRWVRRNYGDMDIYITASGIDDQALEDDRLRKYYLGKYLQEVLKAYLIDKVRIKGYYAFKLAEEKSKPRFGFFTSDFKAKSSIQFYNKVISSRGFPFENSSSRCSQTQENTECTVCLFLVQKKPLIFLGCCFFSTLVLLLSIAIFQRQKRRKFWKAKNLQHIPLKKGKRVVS
Description: Binding affinity and kinetics were measured on a Biacore 8K instrument (GE Healthcare). For the affinity capture of the diluted mAb sample, an anti-human Fc antibody (human antibody capture kit, GE Healthcare) was immobilized on all eight channels of a series S CM5 sensor chip (GE Healthcare) to approximately 10.000 RU. The anti-beta-Klotho antibodies were diluted into HBS-EP+ assay buffer (GE Healthcare) to 0.04 μg/mL. The antibodies were injected in the sample compartment, whereas the reference compartment was used without captured antibody. […] For the antigen inject the flow rate was adjusted to 60 μL/min with an association time of 180 sec and a dissociation time of 1800 sec. The maximum binding signal of beta-Klotho was in the range of 30 RU. At the end of each cycle an inject of regeneration solution, supplied with human antibody capture kit (GE Healthcare), supplemented with 10% non-specific binding reducer (GE Healthcare), for 1 min at 30 μL/min to remove antibody and antigen was performed. Binding kinetics data were evaluated with a 1:1 binding model using the Biacore 8K Evaluation Software version 1.1.1.7442 (GE Healthcare).
For interaction analysis with human beta-klotho, mAbs were captured via an anti-human Fc antibody immobilized on a series S CM5 sensor chip (human antibody capture kit, GE Healthcare). […] Binding kinetics data were evaluated with a 1:1 binding model using the Biacore 8K Evaluation Software version 1.1.1.7442 (GE Healthcare). For interaction analysis with Cynomolgus monkey beta-klotho, mAbs were captured via an anti-human Fc antibody immobilized on a series S CM5 sensor chip (human antibody capture kit, GE Healthcare). […] Binding kinetics data were evaluated with a 1:1 binding model using the Biacore 8K Evaluation Software version 1.1.1.7442 (GE Healthcare). Exemplary sensorgrams for the interaction are shown in FIG. 7 (human KLB) and 8 (monkey KLB), as well as in Table G.

[2] = Capillary gel electrophoresis (cGE); assay type: physicochemical
Description: Capillary Gel Electrophoresis (cGE) Purity and size heterogeneity of the samples was determined by capillary gel electrophoresis (cGE) using a CES18000 instrument (SCIEX) equipped with a pre-assembled fused silica capillary (50 μm×300 mm, SCIEX). Protein samples at 1 mg/ml were prepared using the IgG purity heterogeneity Kit (SCIEX) under non-reducing conditions according to the manufacturer's specifications. Samples were electrophoretically separated for 35 minutes at 25° C. and the absorbance at 220 nm was recorded by a photo diode array (PDA) detector. The data were analyzed using 32 Karat Software (SCIEX).

[3] = Size-exclusion chromatography (SEC); assay type: physicochemical
Description: Analytical SEC was performed using a BioSECcurity instrument (PSS Polymer) with an AdvanceBio 300 column (4.6 mm×300 mm) and AdvanceBio 300 guard column (Agilent Technologies) at room temperature. The analysis was run at a flow rate of 0.5 mL/min using 2× concentrated D-PBS buffer (Thermo Fisher Scientific) with detection at 280 nm. 10 μL of protein sample (at 1 mg/mL) were applied onto the column. Data evaluation was performed using WinGPC software v8.1 (PSS Polymer). For estimation of the molecular weight, the SEC column was calibrated with the AdvanceBio SEC 300 Å Protein Standard (Agilent Technologies).

[4] = Capillary isoelectric focusing (cIEF); assay type: physicochemical
Description: Charge heterogeneity of the antibody samples was determined by capillary isoelectric focusing (cIEF) using a Maurice C device (Protein Simple). The samples were prepared by the cIEF protocol given by the manufacturer with an ampholyte mix 3-10 (Protein Simple) and peptide pl markers of 5.85 and 9.0 (Protein Simple). cIEF runs were analyzed using Compass Software v2.1.0 (Protein Simple).

[5] = SPR, 1:1 binding model, read-out: KD human KLB

Row | Substance | affinity to human KLB compared to 16H7 [1] | Kd [1, 5] [nM] | Kd ([1]; read-out: Affinity SPR KD) [nM] | Homogeneity cGE % Monomer [2] [%] | SEC % HMW ([3]; pH 5, 40° C., d 21) [%] | SEC % LMW ([3]; pH 5, 40° C., d 21) [%] | SEC % HMW ([3]; pH 5, d 0) [%] | SEC % LMW ([3]; pH 5, d 0) [%] | SEC % HMW ([3]; pH 6, 40° C., d 21) [%] | SEC % LMW ([3]; pH 6, 40° C., d 21) [%] | SEC % HMW ([3]; pH 6, d 0) [%] | SEC % LMW ([3]; pH 6, d 0) [%] | SEC % HMW ([3]; pH 8, 40° C., d 21) [%] | SEC % LMW ([3]; pH 8, 40° C., d 21) [%] | SEC % HMW ([3]; pH 8, d 0) [%] | SEC % LMW ([3]; pH 8, d 0) [%] | Charge homogeneity cIEF % main peak [4] [%] | Charge homogeneity cIEF Number of peaks [4] | Charge homogeneity cIEF pI [4] | cIEF % Main peak ([4]; pH 5, 40° C., d 21) [%] | further results
1 | Ab0331: IgG4 PE; 16H7 VL (N25S, D49S, D50E, D91E, N93E); 16H7 VH (M34V, I83T, D109E); HC SEQ ID NO: 38, LC SEQ ID NO: 45 | comparable affinity | 0.206 | 0.21 | 77 | 1 | 0 | 1 | 0 | 0 | 0 | 1 | 0 | 1 | 1 | 2 | 0 | 73 | 5 | 6.9 | 59 | cIEF Number of peaks ([4]; pH 5, 40° C., d 21): 5; cIEF % Main peak ([4]; pH 5, d 0): 73%; cIEF Number of peaks ([4]; pH 5, d 0): 5; cIEF % Main peak ([4]; pH 6, 40° C., d 21): 57%; cIEF Number of peaks ([4]; pH 6, 40° C., d 21): 4; cIEF % Main peak ([4]; pH 6, d 0): 73%; cIEF Number of peaks ([4]; pH 6, d 0): 5; cIEF % Main peak ([4]; pH 8, 40° C., d 21): 14%; cIEF Number of peaks ([4]; pH 8, 40° C., d 21): 6; cIEF % Main peak ([4]; pH 8, d 0): 72%; cIEF Number of peaks ([4]; pH 8, d 0): 5
2 | Ab0335: IgG4 PE; 16H7 VL (N25S, D49S, D50A, D91E, N93E); 16H7 VH (M34V, I83T, D109E); HC SEQ ID NO: 39, LC SEQ ID NO: 46 | comparable affinity | 0.158 | 0.16 | 79 | 0 | 0 | 1 | 0 | 0 | 0 | 1 | 0 | 5 | 1 | 2 | 0 | 71.4 | 4 | 7.1 | 59 | cIEF Number of peaks ([4]; pH 5, 40° C., d 21): 4; cIEF % Main peak ([4]; pH 5, d 0): 70%; cIEF Number of peaks ([4]; pH 5, d 0): 5; cIEF % Main peak ([4]; pH 6, 40° C., d 21): 59%; cIEF Number of peaks ([4]; pH 6, 40° C., d 21): 4; cIEF % Main peak ([4]; pH 6, d 0): 71%; cIEF Number of peaks ([4]; pH 6, d 0): 4; cIEF % Main peak ([4]; pH 8, 40° C., d 21): 12%; cIEF Number of peaks ([4]; pH 8, 40° C., d 21): 5; cIEF % Main peak ([4]; pH 8, d 0): 68%; cIEF Number of peaks ([4]; pH 8, d 0): 5
3 | Ab0351: IgG4 PE; 16H7 VL (N25S, D49E, D50E, D91E, N93E); 16H7 VH (M34V, I83T, D109E); HC SEQ ID NO: 40, LC SEQ ID NO: 47 | comparable affinity | 0.248 | 0.25 | 83 | 1 | 0 | 2 | 0 | 1 | 0 | 0 | 0 | 2 | 1 | 1 | 0 | 72.6 | 4 | 6.7 | 59 | cIEF Number of peaks ([4]; pH 5, 40° C., d 21): 5; cIEF % Main peak ([4]; pH 5, d 0): 72%; cIEF Number of peaks ([4]; pH 5, d 0): 4; cIEF % Main peak ([4]; pH 6, 40° C., d 21): 58%; cIEF Number of peaks ([4]; pH 6, 40° C., d 21): 4; cIEF % Main peak ([4]; pH 6, d 0): 73%; cIEF Number of peaks ([4]; pH 6, d 0): 4; cIEF % Main peak ([4]; pH 8, 40° C., d 21): 15%; cIEF Number of peaks ([4]; pH 8, 40° C., d 21): 5; cIEF % Main peak ([4]; pH 8, d 0): 71%; cIEF Number of peaks ([4]; pH 8, d 0): 4
